Consider 23 molecules from patent publication US8216581 (University of Pennsylvania, dated 2012).

Experiment [1] deals with T1, GPIa/IIa on a stable K562 cell line (UniProt P17301 30-1181; P05556 21-798, limits assumed).
T1 construct: whole, on cells; also called K562 cell line expressing GPIa/IIa
Description: flow cytometry on K562 cells expressing GPIa/IIa.

In experiment [2] the target is T2, GPIIb/IIIa on intact human platelets (human, UniProt P08514 32-1039; P05106 27-788).
T2 construct: whole, on cells; also called platelet GPIIb/IIIa; αIIbβ3
The experiment in a line: immunoprecipitation from biotinylated platelets; agrees with ELISA and Glanzmann platelet flow cytometry.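 Further: precipitated biotin-labelled platelet membrane proteins visualized with biotinylated horseradish peroxidase-avidin complexes, scored for polypeptides behaving like GPIIb/IIIa.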
Description: Precipitated, biotinylated platelet membrane proteins were detected with biotinylated horseradish peroxidase-avidin complexes (ABC Staining Kit, Pierce).

B1: H40L36 (Fab, V domains shown)
VH: QVQLVESGGGVVQPGRSLRLSCAASTFTFSNYAMHWVRQAPGKGLEWVAVISYDGSNKYYADSVKGRFTISRDNSKNTLYLQMNSLRPEDTAVYYCARGGVAAFDYWGQGTLVTVSS
VL: not shown
notes: Soluble Fab
For B1, the binding result in experiment [1] and in experiment [2] was “no binding” in each case.

B2: H37L40 (Fab, V domains shown)
VH: QVQLVESGGGVVQPGRSLRLSCAASGFTFSNYAMHWVRQAPGKGLEWVAVISYDGSNKYYADSVKGRFTISRDNSKNTLYLQMNSLRPEDTAVYYCARGGVAAFDYWGQGTLVTVSS
VL: DIVMTQSPLSLSVSPGEPASISCRSSQSLLDSNGHNFLDWYLQKPGQSPQLLIFVGSYRALGVPDRFTGSGTGTDFTLKISRVEPEDVGVYYCMQGLQAPITFGQGTKLDIK
notes: Soluble Fab
With B2, the binding result in experiment [1] and in experiment [2] was “no binding” throughout.

B3: H38L49 (Fab, V domains shown)
VH: QVQLVESGGGVVQPGRSLRLSCAASGFTFSNYAMHWVRQAPGKGLEWVAVISYDGSNKYYADSVKGRFTISRDNSKNTLYLQMNSLRPEDTAVYYCARGGVGAFDYWGQGTLVTVSS
VL: not shown
notes: Soluble Fab
B3: the binding result in experiment [1] and in experiment [2] was “no binding” each time.

B4: H40L52 (Fab, V domains shown)
VH: QVQLVESGGGVVQPGRSLRLSCAASTFTFSNYAMHWVRQAPGKGLEWVAVISYDGSNKYYADSVKGRFTISRDNSKNTLYLQMNSLRPEDTAVYYCARGGVAAFDYWGQGTLVTVSS
VL: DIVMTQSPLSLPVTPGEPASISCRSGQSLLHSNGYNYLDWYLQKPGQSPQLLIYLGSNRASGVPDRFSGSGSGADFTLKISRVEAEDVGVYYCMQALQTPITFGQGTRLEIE
notes: Soluble Fab
B4: the binding result in experiment [1] and in experiment [2] was “no binding” each time.

B5: H38L54 (Fab, V domains shown)
VH: QVQLVESGGGVVQPGRSLRLSCAASGFTFSNYAMHWVRQAPGKGLEWVAVISYDGSNKYYADSVKGRFTISRDNSKNTLYLQMNSLRPEDTAVYYCARGGVGAFDYWGQGTLVTVSS
VL: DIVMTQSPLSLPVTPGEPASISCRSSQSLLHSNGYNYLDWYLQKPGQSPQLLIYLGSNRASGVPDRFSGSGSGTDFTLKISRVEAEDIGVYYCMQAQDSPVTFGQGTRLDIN
notes: Soluble Fab
Take B5: the binding result in experiment [1] and in experiment [2] was “no binding” throughout.

B6: H37L45 (Fab, V domains shown)
VH: QVQLVESGGGVVQPGRSLRLSCAASGFTFSNYAMHWVRQAPGKGLEWVAVISYDGSNKYYADSVKGRFTISRDNSKNTLYLQMNSLRPEDTAVYYCARGGVAAFDYWGQGTLVTVSS
VL: DIVMTQSPVSLAVTPGEPASISCRSSQSLLHSNGYNYLDWYLQKPGQSPQLLIYLGSTRASGVPDRFSGSGSGTDFTLKINRVEAEDVGVYYCMQALQSPFTFGGGTKVQIK
notes: Soluble Fab
For the molecule B6, the binding result in experiment [1] and in experiment [2] was “no binding” in each case.

B7: H37L48 (Fab, V domains shown)
VH: QVQLVESGGGVVQPGRSLRLSCAASGFTFSNYAMHWVRQAPGKGLEWVAVISYDGSNKYYADSVKGRFTISRDNSKNTLYLQMNSLRPEDTAVYYCARGGVAAFDYWGQGTLVTVSS
VL: not shown
notes: Soluble Fab
As for B7, the binding result in experiment [1] and in experiment [2] was “no binding” throughout.

B8: H40L42 (Fab, V domains shown)
VH: QVQLVESGGGVVQPGRSLRLSCAASTFTFSNYAMHWVRQAPGKGLEWVAVISYDGSNKYYADSVKGRFTISRDNSKNTLYLQMNSLRPEDTAVYYCARGGVAAFDYWGQGTLVTVSS
VL: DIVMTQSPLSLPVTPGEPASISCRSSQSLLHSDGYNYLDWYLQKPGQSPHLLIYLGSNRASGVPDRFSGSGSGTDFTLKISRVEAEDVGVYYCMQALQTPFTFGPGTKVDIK
notes: Soluble Fab
As to B8, the binding result in experiment [1] and in experiment [2] was “no binding” throughout.

B9: H36L35 (Fab, V domains shown)
VH: QVQLVESGGGVVQPGRSLRLSCAASGFTFSSYAMHWVRQAPGKGLEWVAVISYDGSNKYYADSVKGRFTISRDNSKNTLYLQMNSLRPEDTAVYYCARGGVAAFDYWGQGTLVTVSS
VL: not shown
notes: Soluble Fab
Turning to B9, the binding result in experiment [1] and in experiment [2] was “no binding” in each case.

B10: H40L53 (Fab, V domains shown)
VH: QVQLVESGGGVVQPGRSLRLSCAASTFTFSNYAMHWVRQAPGKGLEWVAVISYDGSNKYYADSVKGRFTISRDNSKNTLYLQMNSLRPEDTAVYYCARGGVAAFDYWGQGTLVTVSS
VL: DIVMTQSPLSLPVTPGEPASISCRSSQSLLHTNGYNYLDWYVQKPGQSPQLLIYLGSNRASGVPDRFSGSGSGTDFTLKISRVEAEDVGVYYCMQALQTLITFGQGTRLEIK
notes: Soluble Fab
B10: the binding result in experiment [1] and in experiment [2] was “no binding” throughout.

B11: H38L39 (Fab, V domains shown)
VH: QVQLVESGGGVVQPGRSLRLSCAASGFTFSNYAMHWVRQAPGKGLEWVAVISYDGSNKYYADSVKGRFTISRDNSKNTLYLQMNSLRPEDTAVYYCARGGVGAFDYWGQGTLVTVSS
VL: DIVMTQSPPSLPVTPGEPASISCRSSQSLLHTNGYNYLDWYLQKPGQSPQLLIYLGSNRASGVPDRFSGSGSGTDFTLTISRVEAEDVGVFYCMQALEPPYTFGQGTKLEIK
notes: Soluble Fab
Regarding B11, the binding result in experiment [1] and in experiment [2] was “no binding” each time.

B12: H41L51 (Fab, V domains shown)
VH: QVQLVESGGGVVQPGRSLRLSCAASGSTFSYYAMHWVRQAPGKGLEWVAVISYDGSNKYYADSVKGRFTISRDNSKNTLYLQMNSLRPEDTAVYYCARGGVAAFDYWGQGTLVTVSS
VL: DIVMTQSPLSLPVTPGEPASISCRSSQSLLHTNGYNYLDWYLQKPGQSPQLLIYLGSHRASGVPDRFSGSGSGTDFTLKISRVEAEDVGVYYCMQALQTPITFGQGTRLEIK
notes: Soluble Fab
On to B12, for which the binding result in experiment [1] and in experiment [2] was “no binding” in each case.

B13: H37L47 (Fab, V domains shown)
VH: QVQLVESGGGVVQPGRSLRLSCAASGFTFSNYAMHWVRQAPGKGLEWVAVISYDGSNKYYADSVKGRFTISRDNSKNTLYLQMNSLRPEDTAVYYCARGGVAAFDYWGQGTLVTVSS
VL: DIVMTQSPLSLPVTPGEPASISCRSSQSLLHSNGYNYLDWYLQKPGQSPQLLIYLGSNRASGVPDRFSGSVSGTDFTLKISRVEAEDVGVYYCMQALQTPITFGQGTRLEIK
notes: Soluble Fab
Take B13: the binding result in experiment [1] and in experiment [2] was “no binding” each time.

B14: H37L44 (Fab, V domains shown)
VH: QVQLVESGGGVVQPGRSLRLSCAASGFTFSNYAMHWVRQAPGKGLEWVAVISYDGSNKYYADSVKGRFTISRDNSKNTLYLQMNSLRPEDTAVYYCARGGVAAFDYWGQGTLVTVSS
VL: DIVMTQSPVSLAVTPGEPASISCRSSQSLLHSNGYNYLDWYLQKPGQSPQLLIYLGSTRASGVPDRFSGSGSGTDFTLKINRVEAEDVGVYYCMQALQSPFTFGGGTKVEIK
notes: Soluble Fab
In the case of B14, the binding result in experiment [1] and in experiment [2] was “no binding” throughout.

B15: H37L41 (Fab, V domains shown)
VH: QVQLVESGGGVVQPGRSLRLSCAASGFTFSNYAMHWVRQAPGKGLEWVAVISYDGSNKYYADSVKGRFTISRDNSKNTLYLQMNSLRPEDTAVYYCARGGVAAFDYWGQGTLVTVSS
VL: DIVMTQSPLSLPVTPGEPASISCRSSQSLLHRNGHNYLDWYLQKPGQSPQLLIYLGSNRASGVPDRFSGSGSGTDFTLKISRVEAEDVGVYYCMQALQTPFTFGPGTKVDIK
notes: Soluble Fab
Take B15: the binding result in experiment [1] and in experiment [2] was “no binding” each time.

B16: H42L38 (Fab, V domains shown)
VH: QVQLVESGGAMVQPGRSLRLSCAASGFPFSNYAMHWVRQAPGKGLEWVAVISYDGSNKYYADSVKGRFTISRDNSKNTLYLQMNSLRPEDTAVYYCARGGVAAFDYWGQGTLVTVSS
VL: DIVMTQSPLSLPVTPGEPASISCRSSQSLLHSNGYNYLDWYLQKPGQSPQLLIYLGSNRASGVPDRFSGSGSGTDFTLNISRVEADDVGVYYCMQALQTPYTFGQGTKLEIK
notes: Soluble Fab
As for B16, the binding result in experiment [1] and in experiment [2] was “no binding” in each case.

B17: H46L16 (Fab, V domains shown)
VH: QVQLVESGGGVVQPGRSLRLSCAASGFTFSNFNMHWVRQAPGKGLEWVALISYDGSNKNYADSVKGRFTISRDNSKNTLFLQMNSLRAEDTAVYYCMVVGAFDYWGQGTLVTVSS
VL: DIQMTQSPSSLSASVGDRVTITCRASQGISSYLAWYQQKPGKVPKLLIYAASTLQSGVPSRFSGSGSGTDFTLTISSLQPEDVATYYCQKYNSAPLTFGGGTKVEIK
notes: Soluble Fab, ITP patient A, clone A
Regarding B17, the binding result in experiment [1] and in experiment [2] was “no binding” in each case.

B18: H39L43 (Fab, V domains shown)
VH: QVQLVESGGGVVQPGRSLRLSCAASGFTFSNYAMHWVRQAPGKGLEWVAVISYDGSNKYYADSVKGRFTISRDNSKNTLYLQMNSLRPEDTAVYYCARGGVAAFDYWGQGTLVTV
VL: not shown
notes: Soluble Fab
For the molecule B18, the binding result in experiment [1] and in experiment [2] was “no binding” each time.

B19: H39L37 (Fab, V domains shown)
VH: QVQLVESGGGVVQPGRSLRLSCAASGFTFSNYAMHWVRQAPGKGLEWVAVISYDGSNKYYADSVKGRFTISRDNSKNTLYLQMNSLRPEDTAVYYCARGGVAAFDYWGQGTLVTV
VL: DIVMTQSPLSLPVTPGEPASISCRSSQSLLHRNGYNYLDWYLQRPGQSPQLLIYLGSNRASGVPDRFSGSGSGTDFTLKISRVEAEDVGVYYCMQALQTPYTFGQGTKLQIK
notes: Soluble Fab
Take B19: the binding result in experiment [1] and in experiment [2] was “no binding” in each case.

B20: H39L44 (Fab, V domains shown)
VH: QVQLVESGGGVVQPGRSLRLSCAASGFTFSNYAMHWVRQAPGKGLEWVAVISYDGSNKYYADSVKGRFTISRDNSKNTLYLQMNSLRPEDTAVYYCARGGVAAFDYWGQGTLVTV
VL: DIVMTQSPVSLAVTPGEPASISCRSSQSLLHSNGYNYLDWYLQKPGQSPQLLIYLGSTRASGVPDRFSGSGSGTDFTLKINRVEAEDVGVYYCMQALQSPFTFGGGTKVEIK
notes: Soluble Fab
Take B20: the binding result in experiment [1] and in experiment [2] was “no binding” in each case.

B21: H39L46 (Fab, V domains shown)
VH: QVQLVESGGGVVQPGRSLRLSCAASGFTFSNYAMHWVRQAPGKGLEWVAVISYDGSNKYYADSVKGRFTISRDNSKNTLYLQMNSLRPEDTAVYYCARGGVAAFDYWGQGTLVTV
VL: DIVMTQSPLSLPVTPGEPASISCRSSQSLLHSNGNNYLDWYLQKPGQSPQLLIYLASNRASGVPDRFSGSGSGTDFTLKISRVEPEDVGLYYCMQALQTPLTFGGGSKVEIK
notes: Soluble Fab
As for B21, the binding result in experiment [1] and in experiment [2] was “no binding” in each case.

B22: H83L34 (Fab, V domains shown)
VH: QVQLQESGPGLVKPSETLSLTCTVSGGSISSYYWSWIRQPPGKGLEYIGYIYYSGSTDYNPSLKSRVTISVDTSENQFSLKLSSVTAADTAVYYCARSPPVIRPAMDVWGQGTTVTVSS
VL: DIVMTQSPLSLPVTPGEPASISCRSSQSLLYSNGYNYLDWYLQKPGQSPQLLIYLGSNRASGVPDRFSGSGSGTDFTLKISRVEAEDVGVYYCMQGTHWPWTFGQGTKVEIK
notes: Soluble Fab
On to B22, for which the binding result in experiment [1] and in experiment [2] was “no binding” throughout.

B23: H48L24 (Fab, V domains shown)
VH: QVQLVESGGGVVQPGRSLRLSCAASGFTISNYHIHWVRQAPGKGLEWVAFISYDGSNKYYADSVKGRFTISRDNSKNTLFLQMNSLTTEDTAVYYCAIVGPFDYRGQGTLVTVSS
VL: DIQLTQSPTFLSASVGDRVTITCRASQGISRYLAWYQQKPGKAPKLLIYAASTLQSGVPSRFSGSGSGTDFTLTFSSLQPEDFATYYCQQLNSYPFTFGGGTTVEIK
notes: Soluble Fab, clone A
With B23, the binding result in experiment [1] and in experiment [2] was “no binding” throughout.
